Target: T1, EBOV GP1,2 stalk–MPER epitope peptide (aa 626–640) (Ebola virus (EBOV), UniProt Q05320)
T1 chain: IIHDFVDKTLPDQGD
Assay: crystal structure
Details: both partners purified

B1: 3A6 Fab (Fab, V domains shown)
VH: EVQLLESGGGLVKPGGSLRLSCAASGFTFNEYMMNWVRQPPGKGLEWVSSISGTSTYINYADSVKGRFTISRDNAKNSLYLQMNSLRSDDTAMYYCARGSTGGYWGQGTLITVSS
VL: DIVMTQTPLSSAVTLGQPASISCRSSQRLVHSDGNTYLSWLHQRPGQPPRLLIYKVSLRFSGVPDRFSGSGAGTDFTLKISRVEAEDVGIYYCMQATQFPLTFGGGTKVEIK
B1: binds.

— paper PMC10775387 (Research Square, 2023)
